Test results published in PMC7292828, “Mechanical unfolding of a knotted protein unveils the kinetic and thermodynamic consequences of threading a polypeptide chain” (Scientific Reports, 2020).

Biological target: the molecule itself
Assay: SEC; size exclusion chromatography on a Superdex S75 column (GE Healthcare); dimeric state in solution

Protein	stoichiometry N
MJ0366 from Methanocaldococcus jannaschii, wild type (natural protein, UniProt Q57812 1-92, looked up, MJ0366, Methanocaldococcus jannaschii, knotted protein of 92 residues; If it was, ENLYFQ would remain at the C-terminus; also called wild type protein) MPLVGFMKEKKRATFYLYKNIDGRKLRYLLHKLENVENVDIDTLRRAIEAEKKYKRSITLTEEEEVIIQRLGKSANLLLNCELVKLDEGERA	2
MJ0366 construct K19C/K73C in the background of C81A (natural protein, Methanocaldococcus jannaschii, UniProt Q57812 1-92, looked up, MJ0366, Methanocaldococcus jannaschii, 92 residues; double cysteine mutant with C81A; A TEV site ENLYFQG stands between the C-terminus and the His tag; also called F19C/K73C (as printed once in the results)) MPLVGFMKEKKRATFYLYCNIDGRKLRYLLHKLENVENVDIDTLRRAIEAEKKYKRSITLTEEEEVIIQRLGCSANLLLNAELVKLDEGERA	2
MJ0366 construct F6C/G89C in the background of C81A (natural protein, Methanocaldococcus jannaschii, UniProt Q57812 1-92, looked up, MJ0366, Methanocaldococcus jannaschii, 92 residues; double cysteine mutant with C81A; A TEV site ENLYFQG stands between the C-terminus and the His tag; also called K6C/K89C (as printed once in the discussion)) MPLVGCMKEKKRATFYLYKNIDGRKLRYLLHKLENVENVDIDTLRRAIEAEKKYKRSITLTEEEEVIIQRLGKSANLLLNAELVKLDECERA	2
MJ0366 construct F6C/K73C in the background of C81A (natural protein, Methanocaldococcus jannaschii, UniProt Q57812 1-92, looked up, MJ0366, Methanocaldococcus jannaschii, 92 residues; double cysteine mutant with C81A; A TEV site ENLYFQG stands between the C-terminus and the His tag) MPLVGCMKEKKRATFYLYKNIDGRKLRYLLHKLENVENVDIDTLRRAIEAEKKYKRSITLTEEEEVIIQRLGCSANLLLNAELVKLDEGERA	2
